Molecular target: recombinant soluble tetrameric neuraminidase (tetNA) (Staphylothermus marinus | influenza A virus A/Belgium/2009 (H1N1, 2009 pandemic))
Assay: SEC

For “recombinant soluble tetrameric neuraminidase (tetNA) (enzyme)”, the stoichiometry N was 4.

Reference: article PMC4829898
